For orientation: EC50 means the concentration needed to bring the measured effect to its halfway point. As a reminder, the Kd is the equilibrium constant for the complex coming apart.

Assay [1] deals with T1, human PILRB extracellular domain (recombinant) (human, UniProt Q9UKJ0 20-191).
T1 construct: also called hPILRB
Nature of the assay: SPR, Biacore 8K, recombinant ECD.
Method: (§1) Antibodies were captured on Biacore™ Series S CM5 sensor chips immobilized with mouse anti-human Fab (human Fab capture kit from GE Healthcare) followed by injections of serial 3-fold dilutions of recombinant ECD reagents at a flow rate of 30 μL/min. Each sample was analyzed using a 3-minute association followed by a 10-minute dissociation. After each injection, the sensor chip was regenerated using a 5 0 mM glycine pH2.0 regeneration buffer. A 1:1 Languir model of simultaneous fitting of kₒₙ and koff was used for kinetics analysis.

The target of a further assay is T2, human PILRA G78 on cells (human, UniProt Q9UKJ1 20-303).
T2 construct: wild-type iMicroglia are R78/G78 heterozygous (said in the assay field); also called hPILRA; hPILRA G78
Nature of the assay: flow cytometry on HEK293 cells expressing hPILRA G78.

The target of assay [2] is T3, human PILRA G78 extracellular domain (recombinant hPILRA ECD) (human, UniProt Q9UKJ1 20-197).
T3 construct: also called hPILRA G78
Kind of assay: SPR, Biacore 8K; antibody captured via anti-human Fab, recombinant ECD injected; 1:1 fit.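 Note: CM5 sensor chip, ECD analyte in threefold dilution series at 30 µL/min, 3 min association and 10 min dissociation, kon and koff fitted simultaneously.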 A general note: Surface plasmon resonance follows binding to a sensor surface in real time, without labels.
Method: as §1

In assay [3] the target is T4, cynomolgus monkey PILRA extracellular domain (recombinant) (cynomolgus monkey).
T4 construct: also called cynoPILRA; Cyno PILRA
The assay is described as above.
Method: as §1

Assay [4] has as its target T3, human PILRA G78 extracellular domain …. Kind of assay: SPR, Biacore 8K; hPILRA ECD; antibody with wild-type Fc.
Method: as §1
Characterization for binding affinities of the humanized antibodies to hPILRA ECD were measured by SPR using a Biacore 8K instrument (Table 7).

T3 sequence (Q9UKJ1 20-197 R78G limits assumed): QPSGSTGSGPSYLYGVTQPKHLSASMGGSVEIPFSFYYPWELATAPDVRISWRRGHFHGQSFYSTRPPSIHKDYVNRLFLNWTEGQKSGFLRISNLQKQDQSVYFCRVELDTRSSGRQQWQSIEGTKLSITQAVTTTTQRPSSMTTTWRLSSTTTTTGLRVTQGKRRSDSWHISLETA
T4 sequence (chain, as listed by the source limits assumed): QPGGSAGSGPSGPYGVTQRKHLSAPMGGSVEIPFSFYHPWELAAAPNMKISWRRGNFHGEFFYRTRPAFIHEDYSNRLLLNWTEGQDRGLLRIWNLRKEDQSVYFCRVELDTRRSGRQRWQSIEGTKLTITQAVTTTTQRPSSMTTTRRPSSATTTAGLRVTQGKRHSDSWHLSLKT
T1 sequence (Q9UKJ0 20-191 limits assumed): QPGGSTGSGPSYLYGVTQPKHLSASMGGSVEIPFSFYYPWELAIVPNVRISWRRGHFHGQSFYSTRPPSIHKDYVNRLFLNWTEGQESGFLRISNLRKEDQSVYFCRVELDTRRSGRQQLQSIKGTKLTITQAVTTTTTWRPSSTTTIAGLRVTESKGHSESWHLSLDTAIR
T2 sequence (Q9UKJ1 20-303 R78G limits assumed): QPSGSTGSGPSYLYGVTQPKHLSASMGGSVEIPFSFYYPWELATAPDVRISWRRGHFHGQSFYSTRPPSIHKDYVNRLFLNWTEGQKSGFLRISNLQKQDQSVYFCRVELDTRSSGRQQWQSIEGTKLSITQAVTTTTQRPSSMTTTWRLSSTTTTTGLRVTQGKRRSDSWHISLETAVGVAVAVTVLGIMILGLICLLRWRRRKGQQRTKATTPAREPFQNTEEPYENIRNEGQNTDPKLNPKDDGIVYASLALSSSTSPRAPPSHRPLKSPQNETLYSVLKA
Method for human PILRA G78 on cells: Parental HEK293 cells were labeled with NucBlue Live ReadyProbes Reagent for 30 mins. […] Antibody binding to the cells was detected by FACS and median fluorescence intensity (MFI) was derived from data analysis performed with the FLOJO software (FIGS. 1A-1C).

B1: Anti-PILRA antibody clone 8 (antibody, V domains shown)
VH: QVQLVQSGAEVKKPGASVKVSCKASGYTFTGHYMHWVRQAPGQGLEWMGWINPNSGDTDYAQKFQGRVTMTRDTSISTAYMDLNRLRSDDTAVFYCAREGLDGDPFDYWGQGTLVTVSS
VL: EIMLTQTPLSSPVTLGQPASISCRSSQSLVHSDGNTYLSWLQQRPGQPPRLLIYNISNRFSGVPDRFSGRGAGTDFTLKISRVEAEDVGVYYCIQTTQFSTFGQGTKLEIK
With B1, the binding result in assay [1] is “no binding”. In the assay with human PILRA G78 on cells, this molecule came in with an EC50 of 536 nM. Moreover, the Kd is 11 nM in assay [2] and 59 nM in assay [3].

B2: Anti-PILRA antibody clone 32 (antibody, V domains shown)
VH: EVQLVQSGAEVKKPGASVKVSCKASGYTFTEYYMYWVRQAPGQGLELIGRIDPEDGGTDYIEKFKNRVTLTADTSTSTAYLELSSLRSEDTAVYYCATTIRGTVFAFWGQGTLVTVSS
VL: DIQMTQSPSSLSASVGDRVTITCRPSEDIYNGLAWYQQKPGKSPKLLIYNANSLHTGVPSRFSGSGSGTDYTLTISSLQPEDFATYFCQQYYDYPLTFGQGTKVEIK
notes: Humanized
Take B2: the Kd in assay [4] worked out at 2.8 nM.

B3: Anti-PILRA antibody clone 22 (antibody, V domains shown)
VH: EVQLVQSGAEVKKPGASVKVSCKASGYTFTEYYMYWVRQAPGQGLELIGRIDPEDGGTDYVEKFKNRVTLTADTSTSTAYLELSSLRSEDTAVYYCASTIRGTVFVYWGQGTLVTVSS
VL: DIQMTQSPSSLSASVGDRVTITCRPSEDIYNGLAWYQQKPGKAPKLLIYNANSLHTGVPSRFSGSGSGTDYTLTISSLQPEDFATYYCQQYYDYPLTFGQGTKVEIK
notes: Humanized
For the molecule B3, in assay [4], the Kd was 0.515 nM.

B4: Anti-PILRA antibody clone 34 (antibody, V domains shown)
VH: EVQLVQSGAEVKKPGASVKVSCKASGYTFTEYYMYWVRQAPGQGLELIGRIDPEDGGTDYVEKFKNRVTLTADTSTSTAYLELSSLRSEDTAVYYCASTIRGTVFVYWGQGTLVTVSS
VL: DIQMTQSPSSLSASVGDRVTITCRPSEDIYNGLAWYQQKPGKSPKLLIYNANSLHTGVPSRFSGSGSGTDYTLTISSLQPEDFATYFCQQYYDYPLTFGQGTKVEIK
notes: Humanized
In the case of B4, the Kd in assay [4] came to 1.8 nM.

B5: Anti-PILRA antibody clone 16 (antibody, V domains shown)
VH: EVQLVQSGAEVKKPGASVKVSCKASGYTFTEYYMYWVRQAPGQGLELIGRIDPEDGGTDYVEKFKNRATITADTSTSTAYLELSSLRSEDTAVYYCASTIRGTVFVYWGQGTLVTVSS
VL: DIQMTQSPSSLSASVGDRVTITCRASEDIFNGLAWYQQKPGKSPKLLIYNAKTLHTGVPSRFSGSGSGSDYTLTISSLQPEDFATYFCQQYYDYPLTFGQGTKVEIK
notes: Humanized
For B5, the Kd in assay [4] was 11 nM.

B6: Anti-PILRA antibody clone 33 (antibody, V domains shown)
VH: EVQLVQSGAEVKKPGASVKVSCKASGYTFTEYYMYWVRQAPGQGLELIGRIDPEDGGTDYIEKFKNRSTLTADTSTSTAYLELSSLRSEDTAVYFCATTIRGTVFAFWGQGTLVTVSS
VL: DIQMTQSPSSLSASVGDRVTITCRPSEDIYNGLAWYQQKPGKSPKLLIYNANSLHTGVPSRFSGSGSGTDYTLTISSLQPEDFATYFCQQYYDYPLTFGQGTKVEIK
notes: Humanized
As to B6, the Kd in assay [4] is 2.04 nM.

B7: Anti-PILRA antibody clone 30 (antibody, V domains shown)
VH: EVQLVQSGAEVKKPGASVKVSCKASGYTFTEYYMYWVRQAPGQGLELIGRIDPEDGGTDYVEKFKNRVTLTADTSTSTAYLELSSLRSEDTAVYYCASTIRGTVFVYWGQGTLVTVSS
VL: DIQMTQSPSSLSASVGDRVTITCRASEDIFNGLAWYQQKPGKSPKLLIYNAKTLHTGVPSRFSGSGSGTDYTLTISSLQPEDFATYYCQQYYDYPLTFGQGTKVEIK
notes: Humanized
With B7, the Kd in assay [4] came to 0.878 nM.

B8: Anti-PILRA antibody clone 26 (antibody, V domains shown)
VH: EVQLVQSGAEVKKPGASVKVSCKASGYTFTEYYMYWVRQAPGQGLELIGRIDPEDGGTDYVEKFKNRVTLTADTSTSTAYLELSSLRSEDTAVYYCASTIRGTVFVYWGQGTLVTVSS
VL: DIQMTQSPSSLSASVGDRVTITCRPSEDIYNGLAWYQQKPGKAPKLLIYNANSLHTGVPSRFSGSGSGTDYTLTISSLQPEDFATYFCQQYYDYPLTFGQGTKVEIK
notes: Humanized
For B8, in assay [4], the Kd is 0.511 nM.

B9: Anti-PILRA antibody clone 29 (antibody, V domains shown)
VH: EVQLVQSGAEVKKPGASVKVSCKASGYTFTEYYMYWVRQAPGQGLELIGRIDPEDGGTDYIEKFKNRSTLTADTSTSTAYLELSSLRSEDTAVYFCATTIRGTVFAFWGQGTLVTVSS
VL: DIQMTQSPSSLSASVGDRVTITCRASEDIFNGLAWYQQKPGKSPKLLIYNAKTLHTGVPSRFSGSGSGTDYTLTISSLQPEDFATYYCQQYYDYPLTFGQGTKVEIK
notes: Humanized
In the case of B9, the dissociation constant Kd in assay [4] was found to be 1.28 nM.

B10: Anti-PILRA antibody clone 19 (antibody, V domains shown)
VH: EVQLVQSGAEVKKPGASVKVSCKASGYTFTEYYMYWVRQAPGQGLELIGRIDPEDGGTDYVEKFKNRATLTADTSTSTAYLELSSLRSEDTAVYFCASTIRGTVFVYWGQGTLVTVSS
VL: DIQMTQSPSSLSASVGDRVTITCRASEDIFNGLAWYQQKPGKSPKLLIYNAKTLHTGVPSRFSGSGSGSDYTLTISSLQPEDFATYFCQQYYDYPLTFGQGTKVEIK
notes: Humanized
Take B10: the Kd in assay [4] is 2 nM.

B11: Anti-PILRA antibody clone 20 (antibody, V domains shown)
VH: EVQLVQSGAEVKKPGASVKVSCKASGYTFTEYYMYWVRQAPGQGLELIGRIDPEDGGTDYIEKFKNRVTLTADTSTSTAYLELSSLRSEDTAVYYCATTIRGTVFAFWGQGTLVTVSS
VL: DIQMTQSPSSLSASVGDRVTITCRPSEDIYNGLAWYQQKPGKAPKLLIYNANSLHTGVPSRFSGSGSGTDYTLTISSLQPEDFATYYCQQYYDYPLTFGQGTKVEIK
notes: Humanized
In the case of B11, in assay [4], the Kd came to 1.73 nM.

B12: Anti-PILRA antibody clone 17 (antibody, V domains shown)
VH: EVQLVQSGAEVKKPGASVKVSCKASGYTFTEYYMYWVRQAPGQGLELIGRIDPEDGGTDYVEKFKNRVTLTADTSTSTAYLELSSLRSEDTAVYYCASTIRGTVFVYWGQGTLVTVSS
VL: DIQMTQSPSSLSASVGDRVTITCRASEDIFNGLAWYQQKPGKSPKLLIYNAKTLHTGVPSRFSGSGSGSDYTLTISSLQPEDFATYFCQQYYDYPLTFGQGTKVEIK
notes: Humanized
Consider B12, for which the Kd in assay [4] amounted to 1.29 nM.

B13: Anti-PILRA antibody clone 18 (antibody, V domains shown)
VH: EVQLVQSGAEVKKPGASVKVSCKASGYTFTEYYMYWVRQAPGQGLELIGRIDPEDGGTDYVEKFKNRVTITADTSTSTAYLELSSLRSEDTAVYFCASTIRGTVFVYWGQGTLVTVSS
VL: DIQMTQSPSSLSASVGDRVTITCRASEDIFNGLAWYQQKPGKSPKLLIYNAKTLHTGVPSRFSGSGSGSDYTLTISSLQPEDFATYFCQQYYDYPLTFGQGTKVEIK
notes: Humanized
Consider B13, for which the Kd in assay [4] came out at 7.53 nM.

B14: Anti-PILRA antibody clone 27 (antibody, V domains shown)
VH: EVQLVQSGAEVKKPGASVKVSCKASGYTFTEYYMYWVRQAPGQGLELIGRIDPEDGGTDYVEKFKNRATLTADTSTSTAYLELSSLRSEDTAVYFCASTIRGTVFVYWGQGTLVTVSS
VL: DIQMTQSPSSLSASVGDRVTITCRPSEDIYNGLAWYQQKPGKAPKLLIYNANSLHTGVPSRFSGSGSGTDYTLTISSLQPEDFATYFCQQYYDYPLTFGQGTKVEIK
notes: Humanized
Turning to B14, in assay [4], the Kd was found to be 0.536 nM.

B15: Anti-PILRA antibody clone 21 (antibody, V domains shown)
VH: EVQLVQSGAEVKKPGASVKVSCKASGYTFTEYYMYWVRQAPGQGLELIGRIDPEDGGTDYIEKFKNRSTLTADTSTSTAYLELSSLRSEDTAVYFCATTIRGTVFAFWGQGTLVTVSS
VL: DIQMTQSPSSLSASVGDRVTITCRPSEDIYNGLAWYQQKPGKAPKLLIYNANSLHTGVPSRFSGSGSGTDYTLTISSLQPEDFATYYCQQYYDYPLTFGQGTKVEIK
notes: Humanized
Take B15: in assay [4], the Kd amounted to 0.667 nM.

B16: Anti-PILRA antibody clone 25 (antibody, V domains shown)
VH: EVQLVQSGAEVKKPGASVKVSCKASGYTFTEYYMYWVRQAPGQGLELIGRIDPEDGGTDYIEKFKNRSTLTADTSTSTAYLELSSLRSEDTAVYFCATTIRGTVFAFWGQGTLVTVSS
VL: DIQMTQSPSSLSASVGDRVTITCRPSEDIYNGLAWYQQKPGKAPKLLIYNANSLHTGVPSRFSGSGSGTDYTLTISSLQPEDFATYFCQQYYDYPLTFGQGTKVEIK
notes: Humanized
In the case of B16, in assay [4], the Kd came to 0.794 nM.

B17: Anti-PILRA antibody clone 31 (antibody, V domains shown)
VH: EVQLVQSGAEVKKPGASVKVSCKASGYTFTEYYMYWVRQAPGQGLELIGRIDPEDGGTDYVEKFKNRATLTADTSTSTAYLELSSLRSEDTAVYFCASTIRGTVFVYWGQGTLVTVSS
VL: DIQMTQSPSSLSASVGDRVTITCRASEDIFNGLAWYQQKPGKSPKLLIYNAKTLHTGVPSRFSGSGSGTDYTLTISSLQPEDFATYYCQQYYDYPLTFGQGTKVEIK
notes: Humanized
For the molecule B17, the Kd in assay [4] stood at 0.915 nM.

B18: Anti-PILRA antibody clone 14 (antibody, V domains shown)
VH: EVQLVQSGAEVKKPGASVKVSCKASGYTFTEYYMYWVRQAPGQGLELIGRIDPEDGGTDYIEKFKNRVTITADTSTSTAYLELSSLRSEDTAVYFCATTIRGTVFAFWGQGTLVTVSS
VL: DIQMTQSPSSLSASVGDRVTITCRASEDIFNGLAWYQQKPGKSPKLLIYNAKTLHTGVPSRFSGSGSGSDYTLTISSLQPEDFATYFCQQYYDYPLTFGQGTKVEIK
notes: Humanized
Consider B18, for which the Kd in assay [4] stood at 1.63 nM.

B19: Anti-PILRA antibody clone 13 (antibody, V domains shown)
VH: EVQLVQSGAEVKKPGASVKVSCKASGYTFTEYYMYWVRQAPGQGLELIGRIDPEDGGTDYIEKFKNRVTLTADTSTSTAYLELSSLRSEDTAVYYCATTIRGTVFAFWGQGTLVTVSS
VL: DIQMTQSPSSLSASVGDRVTITCRASEDIFNGLAWYQQKPGKSPKLLIYNAKTLHTGVPSRFSGSGSGSDYTLTISSLQPEDFATYFCQQYYDYPLTFGQGTKVEIK
notes: Humanized
As to B19, the Kd in assay [4] is 0.655 nM.

B20: Anti-PILRA antibody clone 3 (antibody, V domains shown)
VH: EVQLVESGGGLVQPGRSLRLSCAASGFTFDDYAIHWVRQAPGKGLEWVSGMSWNSGSIGYGDSVKGRFTISRDNAKNSLYLQMNSLRAEDTAFYYCAKDKSIGAAGRFDCWGQGTLVTVSS
VL: not shown
With B20, the binding result in assay [1] was “no binding”. A half-maximal effect in the assay with human PILRA G78 on cells (EC50) was put at 14.1 nM. In addition, the Kd in assay [2] was 1.7 nM; in assay [3] it was 3 nM.

For the origin of these results see patent US20260109763A1 (DENALI THERAPEUTICS, published 2026).
